{
  "source": "paper PMC8409056",
  "binders": {"B1": {"name": "CoV-2-RBD-4C aptamer (Aptamer-4C) (structured_DNA)", "DNA": "ATCCAGAGTGACGCAGCATTTCATCGGGTCCAAAAGGGGCTGCTCGGGATTGCGGATATGGACACGT", "modifications": "5'-thiol, immobilized on gold"}},
  "key": {"[1]": {"target": "SARS-CoV-2 spike S1 subunit (SARS-CoV-2, UniProt P0DTC2 16-685)"}, "[2]": {"target": "SARS-CoV-2 spike RBD-Fc fusion (SARS-CoV-2, UniProt P0DTC2 319-541)", "assay": "ELISA on aptamer-coated gold slide"}},
  "data": [
    {"binder": "B1", "values": [
      {"measurement": "binding result", "setting": "[1]", "result": "binds"},
      {"measurement": "binding result", "setting": "[2]", "result": "binds"}
    ]}
  ]
}
